From patent US20100167314A1 (JAPAN SCIENCE AND TECHNOLOGY AGENCY, published 2010) come the findings set out here.

First the molecules themselves.
B1: mouse IRBIT (IP3 receptor-binding protein; IP3R-binding protein released with inositol 1,4,5-trisphosphate) (other)
chain: MSMPDAMPLPGVGEELKQAKEIEDAEKYSFMATVTKAPKKQIQFADDMQEFTKFPTKTGRRSLSRSISQSSTDSYSSAASYTDSSDDEVSPREKQQTNSKGSSNFCVKNIKQAEFGRREIEIAEQDMSALISLRKRAQGEKPLAGAKIVGCTHITAQTAVLIETLCALGAQCRWSACNIYSTQNEVAAALAEAGVAVFAWKGESEDDFWWCIDRCVNMDGWQANMILDDGGDLTHWVYKKYPNVFKKIRGIVEESVTGVHRLYQLSKAGKLCVPAMNVNDSVTKQKFDNLYCCRESILDGLKRTTDVMFGGKQVVVCGYGEVGKGCCAALKALGAIVYITEIDPICALQACMDGFRVVKLNEVIRQVDVVITCTGNKNVVTREHLDRMKNSCIVCNMGHSNTEIDVTSLRTPELTWERVRSQVDHVIWPDGKRVVLLAEGRLLNLSCSTVPTFVLSITATTQALALIELYNAPEGRYKQDVYLLPKKMDEYVASLHLPSFDAHLTELTDDQAKYLGLNKNGPFKPNYYRY
notes: also called Mouse-derived IRBIT
B2: mouse cerebellum PIPKIIα (enzyme, UniProt O70172 2-405, looked up)
chain: ATPGNLGSSVLASKTKTKKKHFVAQKVKLFRASDPLLSVLMWGVNHSINELSHVQIPVMLMPDDFKAYSKIKVDNHLFNKENMPSHFKFKEYCPMVFRNLRERFGIDDQDFQNSLTRSAPLPNDSQARSGARFHTSYDKRYVIKTITSEDVAEMHNILKKYHQYIVECHGVTLLPQFLGMYRLNVDGVEIYVIVTRNVFSHRLSVYRKYDLKGSTVAREASDKEKAKELPTLKDNDFINEGQKIYIDDNNKKIFLEKLKKDVEFLAQLKLMDYSLLVGIHDVERAEQEEVECEENDGEEEGESDSTHPIGTPPDSPGNTLNSSPPLAPGEFDPNIDVYAIKCHENAPRKEVYFMAIIDILTHYDAKKKAAHAAKTVKHGAGAEISTVNPEQYSKRFLDFIGHIL
notes: Endogenous protein coprecipitated with an anti-IRBIT antibody

For assay [1], the target named is T1, myc-tagged CPSF160 subunit of mouse CPSF (mouse, UniProt Q9EPU4 1-1441, limits assumed).
T1 construct: Co-expressed with IRBIT in COS cells; not shown: myc tag
T1 sequence (looked up): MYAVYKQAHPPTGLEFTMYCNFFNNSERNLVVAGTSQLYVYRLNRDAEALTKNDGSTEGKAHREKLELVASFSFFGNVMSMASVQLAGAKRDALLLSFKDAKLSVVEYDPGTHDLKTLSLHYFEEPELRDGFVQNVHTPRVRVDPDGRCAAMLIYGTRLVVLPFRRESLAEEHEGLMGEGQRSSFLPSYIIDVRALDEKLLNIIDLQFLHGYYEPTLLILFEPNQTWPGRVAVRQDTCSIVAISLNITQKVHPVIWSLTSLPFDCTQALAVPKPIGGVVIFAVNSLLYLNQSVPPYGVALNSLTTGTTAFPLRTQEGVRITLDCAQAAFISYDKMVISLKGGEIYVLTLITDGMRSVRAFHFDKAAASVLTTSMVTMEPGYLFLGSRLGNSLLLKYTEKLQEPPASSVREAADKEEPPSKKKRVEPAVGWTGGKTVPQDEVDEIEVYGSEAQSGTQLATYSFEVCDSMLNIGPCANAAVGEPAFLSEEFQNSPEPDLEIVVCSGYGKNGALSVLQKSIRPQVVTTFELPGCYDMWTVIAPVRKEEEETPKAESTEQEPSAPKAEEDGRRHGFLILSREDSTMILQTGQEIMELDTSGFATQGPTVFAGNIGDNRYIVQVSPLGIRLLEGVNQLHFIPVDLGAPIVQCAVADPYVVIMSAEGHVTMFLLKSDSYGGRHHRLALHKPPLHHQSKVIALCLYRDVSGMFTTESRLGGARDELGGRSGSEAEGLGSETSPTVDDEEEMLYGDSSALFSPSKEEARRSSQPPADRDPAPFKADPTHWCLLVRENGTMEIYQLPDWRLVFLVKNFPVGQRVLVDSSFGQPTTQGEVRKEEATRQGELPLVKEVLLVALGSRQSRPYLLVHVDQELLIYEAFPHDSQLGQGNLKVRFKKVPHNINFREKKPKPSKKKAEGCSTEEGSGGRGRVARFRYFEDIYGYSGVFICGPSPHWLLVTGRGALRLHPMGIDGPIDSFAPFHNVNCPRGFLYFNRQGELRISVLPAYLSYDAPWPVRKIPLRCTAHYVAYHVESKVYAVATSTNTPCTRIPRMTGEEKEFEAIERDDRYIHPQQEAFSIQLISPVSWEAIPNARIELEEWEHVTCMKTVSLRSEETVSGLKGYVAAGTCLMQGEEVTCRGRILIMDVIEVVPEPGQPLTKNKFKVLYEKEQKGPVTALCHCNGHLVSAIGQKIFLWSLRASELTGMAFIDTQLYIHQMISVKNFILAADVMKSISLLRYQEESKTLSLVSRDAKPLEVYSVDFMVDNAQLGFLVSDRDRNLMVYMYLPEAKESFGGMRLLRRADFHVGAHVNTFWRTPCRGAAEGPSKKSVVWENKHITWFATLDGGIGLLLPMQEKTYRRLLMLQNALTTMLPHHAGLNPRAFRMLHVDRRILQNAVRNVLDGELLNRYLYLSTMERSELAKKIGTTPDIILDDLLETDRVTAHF
Description: co-expression in COS cells, co-immunoprecipitation, detection with anti-IRBIT and anti-myc antibodies. Here is the method:
CPSF is a group of conjugated proteins consisting of 4 subunits: CPSF160, CPSF100, CPSF73, and CPSF30. First, to reveal to which one of the 4 subunits IRBIT binds, myc-tagged cDNAs prepared by tagging each subunit with myc were expressed together with IRBIT in various combinations by COS cells or the like and then the way in which coprecipitation occurs upon immunoprecipitation of IRBIT or CPSF was examined.
DNA was prepared by fusing DNA encoding an myc tag to cDNA encoding the full-length of or each subunit of CPSF. The thus prepared DNA was inserted into a vector for mammals. Meanwhile, cDNA encoding IRBIT was also inserted into the same vector. COS cells were transformed with the thus prepared vector and then the above DNA was co-expressed.
Cells were separated by centrifugation and then lysed. Cytoplasmic fractions were collected and then the binding of IRBIT to CPSF was detected using an anti-IRBIT antibody (JP2004-129612 A) and an anti-myc antibody.

For assay [2], the target named is B1. Description: immunoprecipitation from mouse cerebellum with anti-IRBIT antibody. Here is the method:
(1) Mouse IRBIT and Myc-PIPKIIα, β, or γ were over-expressed in COS-7, followed by immunoprecipitation. Specifically, cells were solubilized with a lysis buffer (10 mM Hepes, 100 mM NaCl, 2 mM EDTA, 1% P-40, pH 7.4) and then centrifuged (20000×g, 30 minutes) to collect supernatants. Subsequently, an anti-Myc antibody or an anti-IRBIT antibody was added and then reaction was performed for 1 hour. Furthermore, protein G Sepharose® was added before one hour reaction, and the immune complex was washed with a lysis buffer and then eluted with a SDS-PAGE sample buffer. Subsequently, Western blotting was performed using an anti-Myc antibody or an anti-IRBIT antibody. As a result, IRBIT was coprecipitated with Myc-PIPKIIα, β, and γ (FIG. 4). (2) Immunoprecipitation was performed using an anti-IRBIT antibody and the mouse cerebellum, so that PIPKIIα was coprecipitated (FIG. 5). The in vivo binding of IRBIT with PIPKII was confirmed based on the results. (3) Mouse IRBIT and Myc-PIPKIIγ were overexpressed in COS-7 and then immunostaining was performed. Specifically, after fixation with 4% paraformaldehyde, transmembrane treatment with 0.1% Triton X-100 and blocking treatment with 2% goat serum were performed, a mouse anti-Myc antibody and a rabbit anti-IRBIT antibody were added, and then reaction was performed at room temperature for 1 hour. […]

Take B1: the binding result in assay [1] is given as “binds”. For B2, in assay [2], the binding result is reported as “binds”.
